The results in this text go back to PMC4737123.

Test [1] deals with purified human IgM (non‐specific IgM) (human). Kind of test: AUC; sedimentation velocity, 40 000 r.p.m., 20°C, PBS; FV6 alone, IgM alone, and IgM (0.2 μM) with FV6 at molar ratios 1:1, 1:2 and 1:3; continuous size distribution (SEDFIT).
For test [2] the target is unchanged. Kind of test: SPR; Biacore 2000; IgM (750 RU) immobilised on a CM4 chip by amine coupling; FV6 or FV2 flowed over (1.125-18 nM); HEPES buffer (0.01 M HEPES, 0.15 M NaCl, 3 mM EDTA, 0.005% P20) pH 7.4, 20°C; global 1:1 interaction model. On the technique in general: SPR reads the build-up and loss of mass on a sensor chip optically.

Take “recombinant full‐length HB3VAR06 (FV6), entire ectodomain of the PfEMP1 protein HB3VAR06 (domain or fragment)”: the stoichiometry N (usually a count of units in the complex or per binding partner) in test [1] turned out to be 2 FV6 per IgM. Also, in test [2], the dissociation constant (Kd) (usually the free concentration of one partner at which half of the binding sites on the other are occupied at equilibrium, for simple one-to-one binding) amounted to 0.1 nM; the off-rate (koff) (as a rule, a measure of how fast the partners let go of each other) was determined as 0.0003 s⁻¹; the on-rate (kon) (usually the second-order rate constant of association) came to 2.3e+06 M⁻¹ s⁻¹.

In test [2], “recombinant full‐length IT4VAR04 (a VAR2CSA‐type PfEMP1; FV2) (natural protein)” yielded a Kd of 0.3 nM, a koff of 0.00051 s⁻¹ and a kon of 1.8e+06 M⁻¹ s⁻¹.
